# ± gives the uncertainty stated by the source.
# B1: Receptor-interacting serine/threonine-protein kinase 2, residues 438 to 518; numbered along this chain, O43353 (parent)
# chain: QWIQSKREDIVNQMTEACLNQSLDALLSRDLIMKEDYELVSTKPTRTSKVRQLLDTTDIQGEEFAKVIVQKLKDNKQMGLQ
# Variants of: B1
# Assay: abundance fitness (aPCA) (normalised: wild type 0, dead -1); higher = more abundant; growth selection in yeast, the domain comes from the species named
# Details: Homo sapiens
row,Variant,abundance fitness
1,QWIQSKREDIVNQMTEACLNQSLDALLSRDLIMKEDYELVSTKPTRTSKVRQLLDTTDIQGEEFGKVIVQKLKDNKQMGLQ [A65G],-0.6 ± 0.058
2,QWIQSKREDIVNQMTEACLNQSLDALLSRDLIMKEDYELVSTKPTRTSKVRQLLDTTDIQGEEFDKVIVQKLKDNKQMGLQ [A65D],-0.569 ± 0.13
3,QWIQSKREDIVNQMTEACLNQSLDALLSRDLIMKEDYELVSTKPTRTHKVRQLLDTTDIQGEEFAKVIVQKLKDNKQMGLQ [S48H],-0.47 ± 0.2
4,QWIQSKREDIVNQMTEACLNQSLDALLSRDLIMKEDYELVVTKPTRTSKVRQLLDTTDIQGEEFAKVIVQKLKDNKQMGLQ [S41V],0.11 ± 0.05
5,QWIQSKREDIVNQMTEACLNQSLDALLSRDLIMKEDYELVGTKPTRTSKVRQLLDTTDIQGEEFAKVIVQKLKDNKQMGLQ [S41G],-0.295 ± 0.063
6,QCIQSKREDIVNQMTEACLNQSLDALLSRDLIMKEDYELVSTKPTRTSKVRQLLDTTDIQGEEFAKVIVQKLKDNKQMGLQ [W2C],-0.556 ± 0.18
7,QMIQSKREDIVNQMTEACLNQSLDALLSRDLIMKEDYELVSTKPTRTSKVRQLLDTTDIQGEEFAKVIVQKLKDNKQMGLQ [W2M],-0.4 ± 0.12
8,QTIQSKREDIVNQMTEACLNQSLDALLSRDLIMKEDYELVSTKPTRTSKVRQLLDTTDIQGEEFAKVIVQKLKDNKQMGLQ [W2T],-0.609 ± 0.24
9,QWIQSKREDIVNQMTEACLNQSLDALLSQDLIMKEDYELVSTKPTRTSKVRQLLDTTDIQGEEFAKVIVQKLKDNKQMGLQ [R29Q],-0.059 ± 0.091
10,QWIQSKREDIVNQMTEACLNQSLDALLSWDLIMKEDYELVSTKPTRTSKVRQLLDTTDIQGEEFAKVIVQKLKDNKQMGLQ [R29W],-0.575 ± 0.16
11,QWIQSKREDIVNQMTEACLNQRLDALLSRDLIMKEDYELVSTKPTRTSKVRQLLDTTDIQGEEFAKVIVQKLKDNKQMGLQ [S22R],-1.05 ± 0.13
12,QWIQSKREDIVNQMTEACLNQSLDALLSRDLIMKEDYELVSTKPTRTSKVRQLLDTTDIQGEEFAKVIVQKLKDNKQMVLQ [G79V],-0.167 ± 0.29
13,QWIQSKREDIVNQMTEACLNQSLDALLSRDLILKEDYELVSTKPTRTSKVRQLLDTTDIQGEEFAKVIVQKLKDNKQMGLQ [M33L],0.059 ± 0.061
14,QWIQSKREDIVNQMTEACLKQSLDALLSRDLIMKEDYELVSTKPTRTSKVRQLLDTTDIQGEEFAKVIVQKLKDNKQMGLQ [N20K],0.117 ± 0.22
15,QWIQSKREDIVNQMTEACLPQSLDALLSRDLIMKEDYELVSTKPTRTSKVRQLLDTTDIQGEEFAKVIVQKLKDNKQMGLQ [N20P],-0.829 ± 0.24
16,QWIQSKREDIVNQMTEACLNQSLDALLSRDLIMLEDYELVSTKPTRTSKVRQLLDTTDIQGEEFAKVIVQKLKDNKQMGLQ [K34L],-0.079 ± 0.097
17,QWIQSKREDIVNQMTEACLNQSLDALLSRDLIMAEDYELVSTKPTRTSKVRQLLDTTDIQGEEFAKVIVQKLKDNKQMGLQ [K34A],-0.094 ± 0.078

row,Variant,abundance fitness
1,QWIQSKREDIVNQMTEACLNQSLDALLSRDLIMKEDYELVSAKPTRTSKVRQLLDTTDIQGEEFAKVIVQKLKDNKQMGLQ [T42A],-0.069 ± 0.075
2,QWIQSKREDIVNQMTEACLNQSLDALLSRDLIMKEDYELVSTKPTRTSKVQQLLDTTDIQGEEFAKVIVQKLKDNKQMGLQ [R51Q],-0.052 ± 0.17
3,QWIQSKREDIVNQMTEACLNQSLDALLSRDLIMKEDYELVSTKPTRTSKVMQLLDTTDIQGEEFAKVIVQKLKDNKQMGLQ [R51M],-0.354 ± 0.16
4,QWIQSKREDIVNQMTEACLNQSLDALLSRDLIMKEDYELVSTKPTRTSKVGQLLDTTDIQGEEFAKVIVQKLKDNKQMGLQ [R51G],-0.407 ± 0.055
5,QWIQSKREDIVNQMTEACLNQSLDALLSRDLIMKEDYELVSTKWTRTSKVRQLLDTTDIQGEEFAKVIVQKLKDNKQMGLQ [P44W],-0.483 ± 0.1
6,QWIQSKREDIVNQMTETCLNQSLDALLSRDLIMKEDYELVSTKPTRTSKVRQLLDTTDIQGEEFAKVIVQKLKDNKQMGLQ [A17T],0.131 ± 0.083
7,QWIQSKREDIVNQMTEACLNQSLDALLSRDLIMKEDYELVSTKPTRTSKVRQLLDTTDIQGEEVAKVIVQKLKDNKQMGLQ [F64V],-0.236 ± 0.058
8,QWIQSKREDIVNQMTEACLNQSLDALLSRDLIMKEDYELVSTKPTRTSKVRQLLDPTDIQGEEFAKVIVQKLKDNKQMGLQ [T56P],-0.612 ± 0.075
9,QWIQSKREDIVNQMTEACLNQSLDALLSRPLIMKEDYELVSTKPTRTSKVRQLLDTTDIQGEEFAKVIVQKLKDNKQMGLQ [D30P],-1.08 ± 0.24
10,QWIQSKREDIVNQMTEACLNQSLDALLSRKLIMKEDYELVSTKPTRTSKVRQLLDTTDIQGEEFAKVIVQKLKDNKQMGLQ [D30K],0.06 ± 0.11
11,QWIQSKREDIVNQMTEACLNQSLDALLSRDLIMKEMYELVSTKPTRTSKVRQLLDTTDIQGEEFAKVIVQKLKDNKQMGLQ [D36M],-0.711 ± 0.22
12,QWIQSKREDIVNQMTEACLNQSLDALLSRDLIMKEDYELVSTKPTRTSKVRQLLDTTDIQGENFAKVIVQKLKDNKQMGLQ [E63N],-0.646 ± 0.19
13,QWIQSKREDIVNQMTEACLNQSLDALLSRDLIMKEDYELVSTKPTRTSKVRQLLDTTDIQGEKFAKVIVQKLKDNKQMGLQ [E63K],-0.441 ± 0.18
14,QWIQSKREDIVNQMTEACLNQSLDALLSRDLIMKEDYELVSTKPTRTSKVRQLLDTTDIQGEQFAKVIVQKLKDNKQMGLQ [E63Q],-0.485 ± 0.28
15,QWIQSKREDIVNQMTEACLNQSLDAQLSRDLIMKEDYELVSTKPTRTSKVRQLLDTTDIQGEEFAKVIVQKLKDNKQMGLQ [L26Q],-0.31 ± 0.061
16,QWIQSKREDIVNQMTEACLNQSLDALLSRDLIMKEDYELMSTKPTRTSKVRQLLDTTDIQGEEFAKVIVQKLKDNKQMGLQ [V40M],-0.815 ± 0.22
17,QWIQSKREDIVNQMTEACLNQSLDALLSRDLIMKEDYELESTKPTRTSKVRQLLDTTDIQGEEFAKVIVQKLKDNKQMGLQ [V40E],-0.682 ± 0.13

# Reference: the Human Domainome abundance scans (Beltran et al. 2025)
